Data from FireProtDB (doi:10.1038/nsb0196-54).

B1: Regulatory protein rop, P03051 (parent)
chain: MTKQEKTALNMARFIRSQTLTLLEKLNELDADEQADICESLHDHADELYRSCLARFGDDGENL

Variants of: B1
Conditions: Escherichia coli, pH 7, Thermal, CD, Sodium phosphate 10 mM, NaCl 350 mM, structure 1ROP, whole UniProt chain shown; for ddG of mutation (higher = less stable): 69 °C

**Q.** Which results are given for D30A?
**A.** ddG of mutation (higher = less stable): -0.3 kcal/mol; Tm: 71.2 °C; change of melting temperature, mutant - wild type (higher = more stable): 2.5 °C

**Q.** Which “ddG of mutation (higher = less stable)” value does the source give for D30C here?
**A.** -0.8 kcal/mol

**Q.** What about the Tm of the same variant?
**A.** 74 °C

**Q.** And the “change of melting temperature, mutant - wild type (higher = more stable)” value (from here on “change of melting temperature, mutant”)?
**A.** 5.3 °C

**Q.** For D30E, which “ddG of mutation (higher = less stable)” value is on record?
**A.** -1 kcal/mol

**Q.** And the Tm?
**A.** 74.9 °C

**Q.** What about the “change of melting temperature, mutant” value of the same variant?
**A.** 6.2 °C

**Q.** For D30F, which “ddG of mutation (higher = less stable)” value is on record?
**A.** 0.1 kcal/mol

**Q.** And the Tm?
**A.** 68.3 °C

**Q.** What about the “change of melting temperature, mutant” value of the same variant?
**A.** -0.4 °C

**Q.** For D30G, which “ddG of mutation (higher = less stable)” value is on record?
**A.** -2 kcal/mol

**Q.** And the Tm?
**A.** 80.3 °C

**Q.** What about the “change of melting temperature, mutant” value of the same variant?
**A.** 11.6 °C

**Q.** For D30H, which “ddG of mutation (higher = less stable)” value is on record?
**A.** -0.9 kcal/mol

**Q.** What about the Tm of the same variant?
**A.** 74.5 °C

**Q.** What about the “change of melting temperature, mutant” value of the same variant?
**A.** 5.8 °C

**Q.** Which results are given for D30I?
**A.** ddG of mutation (higher = less stable): 0.8 kcal/mol; Tm: 63.4 °C; change of melting temperature, mutant - wild type (higher = more stable): -5.3 °C

**Q.** For D30K, which “ddG of mutation (higher = less stable)” value is on record?
**A.** -0.9 kcal/mol

**Q.** And the Tm?
**A.** 74.6 °C

**Q.** And the “change of melting temperature, mutant” value?
**A.** 5.9 °C

**Q.** For D30L, which “ddG of mutation (higher = less stable)” value is on record?
**A.** 0.1 kcal/mol

**Q.** And the Tm?
**A.** 68.4 °C

**Q.** And the “change of melting temperature, mutant” value?
**A.** -0.3 °C

**Q.** With D30M as the variant, how does the “ddG of mutation (higher = less stable)” value read?
**A.** -0.6 kcal/mol

**Q.** And the Tm?
**A.** 72.7 °C

**Q.** What about the “change of melting temperature, mutant” value of the same variant?
**A.** 4 °C

**Q.** Which results are given for D30N?
**A.** ddG of mutation (higher = less stable): -0.8 kcal/mol; Tm: 73.8 °C; change of melting temperature, mutant - wild type (higher = more stable): 5.1 °C

**Q.** With D30P as the variant, how does the “ddG of mutation (higher = less stable)” value read?
**A.** 1.6 kcal/mol

**Q.** What about the Tm of the same variant?
**A.** 58.9 °C

**Q.** And the “change of melting temperature, mutant” value?
**A.** -9.8 °C

**Q.** Which results are given for D30Q?
**A.** ddG of mutation (higher = less stable): -1.8 kcal/mol; Tm: 79.1 °C; change of melting temperature, mutant - wild type (higher = more stable): 10.4 °C

**Q.** With D30R as the variant, how does the “ddG of mutation (higher = less stable)” value read?
**A.** -0.8 kcal/mol

**Q.** Which “ddG of mutation (higher = less stable)” value does the source give for D30S here?
**A.** -1 kcal/mol

**Q.** What about the Tm of the same variant?
**A.** 74.7 °C

**Q.** What about the “change of melting temperature, mutant” value of the same variant?
**A.** 6 °C

**Q.** What does the source list for D30T?
**A.** ddG of mutation (higher = less stable): 0.4 kcal/mol; Tm: 66.6 °C; change of melting temperature, mutant - wild type (higher = more stable): -2.1 °C

**Q.** For D30V, which “ddG of mutation (higher = less stable)” value is on record?
**A.** 0.4 kcal/mol

**Q.** What about the Tm of the same variant?
**A.** 66.6 °C

**Q.** And the “change of melting temperature, mutant” value?
**A.** -2.1 °C

**Q.** For D30W, which “ddG of mutation (higher = less stable)” value is on record?
**A.** 0.4 kcal/mol

**Q.** What about the Tm of the same variant?
**A.** 65.9 °C

**Q.** And the “change of melting temperature, mutant” value?
**A.** -2.8 °C

**Q.** With D30Y as the variant, how does the “ddG of mutation (higher = less stable)” value read?
**A.** -0.2 kcal/mol

**Q.** And the Tm?
**A.** 70.4 °C

**Q.** What about the “change of melting temperature, mutant” value of the same variant?
**A.** 1.7 °C
